Measured values published in article PMC3008712.

What was measured:
[1] = biological target: T1, recombinant human γD-crystallin (human), P07320; assay: non-reducing SDS-PAGE; 1 mg/ml HGDC in 5 mM sodium phosphate pH 7.0, UV-C irradiated (254 nm, 1,850 μW/cm^2) for 10-60 min; 15% gel, sample buffer without β-mercaptoethanol; band intensities by Image-J; conditions: remark: other sources report otherwise
T1 chain: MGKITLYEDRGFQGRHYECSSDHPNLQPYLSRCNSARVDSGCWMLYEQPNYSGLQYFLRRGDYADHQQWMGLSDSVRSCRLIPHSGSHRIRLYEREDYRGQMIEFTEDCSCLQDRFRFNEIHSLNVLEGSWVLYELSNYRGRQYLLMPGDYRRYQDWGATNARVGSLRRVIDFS

[2] = biological target: T1, recombinant human γD-crystallin …; assay: reducing SDS-PAGE; 1 mg/ml HGDC in 5 mM sodium phosphate pH 7.0, UV-C irradiated (254 nm, 1,850 μW/cm^2) for 10-60 min; 15% gel, sample buffer with β-mercaptoethanol; band intensities by Image-J; conditions: remark: other sources report otherwise

- HGDC polymerization (%) without β-ME, 10 min UV-C [1]: 7.31%
- HGDC polymerization (%) without β-ME, 20 min UV-C [1]: 17.6%
- HGDC polymerization (%) without β-ME, 30 min UV-C [1]: 30.6%
- HGDC polymerization (%) without β-ME, 40 min UV-C [1]: 42%
- HGDC polymerization (%) without β-ME, 50 min UV-C [1]: 51.3%
- HGDC polymerization (%) without β-ME, 60 min UV-C [1]: 53.6%
- HGDC polymerization (%) with β-ME, 10 min UV-C [2]: 6.66%
- HGDC polymerization (%) with β-ME, 20 min UV-C [2]: 15%
- HGDC polymerization (%) with β-ME, 30 min UV-C [2]: 25.4%
- HGDC polymerization (%) with β-ME, 40 min UV-C [2]: 29.8%
- HGDC polymerization (%) with β-ME, 50 min UV-C [2]: 30.1%
- HGDC polymerization (%) with β-ME, 60 min UV-C [2]: 31.5%
B1: recombinant human γD-crystallin, P07320 1-174 (natural protein)
chain: T1 chain
